Molecular target: wild-type EGFR expressed on cells (human) (UniProt P00533)
Test: flow cytometry, A431 cells

MFI: 185
Substance: FITC-conjugated goat anti-mouse Fc specific secondary antibody
